# Results published in patent US20250277030A1, “ANTI-NAPI2B ANTIBODIES AND METHODS OF USE” (Zymeworks BC Inc., priority 2022, published 2025).
# T1: NaPi2b expressed on TOV-21G cells (Homo sapiens, UniProt O95436)
# T1 construct: IGROV-1 and TOV-21G cells express endogenous NaPi2b at high and moderate levels, respectively; endogenous in cells; host or cells: TOV-21G
# T1 sequence (O95436 1-690): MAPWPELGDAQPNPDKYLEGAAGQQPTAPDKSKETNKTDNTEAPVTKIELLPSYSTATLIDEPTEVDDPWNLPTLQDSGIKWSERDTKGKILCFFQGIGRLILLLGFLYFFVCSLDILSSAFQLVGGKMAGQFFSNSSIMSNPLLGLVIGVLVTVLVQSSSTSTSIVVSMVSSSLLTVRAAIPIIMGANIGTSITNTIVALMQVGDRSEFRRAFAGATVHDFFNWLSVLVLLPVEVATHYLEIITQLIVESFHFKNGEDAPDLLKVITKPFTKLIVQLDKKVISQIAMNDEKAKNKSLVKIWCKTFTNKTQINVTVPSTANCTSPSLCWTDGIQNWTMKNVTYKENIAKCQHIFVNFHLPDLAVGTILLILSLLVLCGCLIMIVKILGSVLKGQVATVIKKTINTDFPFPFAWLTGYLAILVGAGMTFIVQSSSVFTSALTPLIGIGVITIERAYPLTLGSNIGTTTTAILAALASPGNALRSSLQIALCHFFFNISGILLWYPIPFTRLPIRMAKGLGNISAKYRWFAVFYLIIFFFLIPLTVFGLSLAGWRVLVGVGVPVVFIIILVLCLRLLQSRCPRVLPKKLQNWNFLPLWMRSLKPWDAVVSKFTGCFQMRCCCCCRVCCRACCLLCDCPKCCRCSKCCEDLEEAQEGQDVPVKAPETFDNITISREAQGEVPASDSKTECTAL
# B1: v29456: humanized anti-NaPi2b IgG1/kappa antibody H1L2; VH SEQ ID NO:24, VL SEQ ID NO:29 (antibody, V domains shown)
# VH: QVQLVQSGAEVKKPGASVKVSCKASGFTFTSYNVHWVRQAPGQGLEWMGAISPGNGDLSYAQKFQGRVTMTRDTSTSTVYMELSSLRSEDTAVYYCARGRTGMGAVDYWGQGTLVTVSS
# VL: DVQMTQSPSSLSASVGDRVTITCRASQDVYSYLNWYQQKPGKAVKLLIYYTSRLQSGVPSRFSGSGSGTDYTLTISSLQPEDFATYYCQQYNIFPWTFGQGTKLEIK
# modifications: v29452, v29456, v29460 VH (H1); v29453, v29454, v29455, v29456 VL (L2)
# Assays:
# KLH = experiment: NS-ELISA non-specific binding, KLH; settings: mAb at 100 nM
# Method: The isoelectric point was measured by capillary isoelectric focusing (cIEF), the propensity for self-aggregation was measured by Affinity-capture self-interaction nanoparticle spectroscopy (AC-SINS) and non-specific binding was measured by NS-ELISA, as described below.
# NS-ELISA was used to measure the propensity of the antibodies to bind to a range of biomolecules to emulate the undesirable non-specific interactions to biological matrices in vivo as described below.
# NS-ELISA was carried out in Corning®96-well EIA/RIA Easy Wash™ Clear Flat Bottom Polystyrene High Bind Microplate coated overnight at 4° C. with 50 μL of Heparin (Sigma, H3149) diluted with 50 mM sodium carbonate pH 9.6 to a final concentration of 250 μg/mL. The plate was incubated for 2 days at room temperature, wells that were coated with heparin were not covered to allow air dry. […] Reactions were stopped after approximately 10 minutes by adding 100 μL of 1 M HCl to each well, and absorbance was read at 450 nm. Binding scores were calculated as the ratio of the ELISA signal of the antibody (antibody-treated) to the signal of a well containing buffer instead of the primary antibody (untreated). The cutoffs considered for each binding molecule (ssDNA, KLH, insulin, dsDNA and heparin) were internally calculated, based on the average of Zymeworks Inc. produced antibodies and antibodies benchmarks published in the literature.
# [1] = target: T1, NaPi2b expressed on TOV-21G cells; experiment: Cellular binding to TOV-21G cells by flow cytometry (Example 19); settings: NB = no binding (apparent Kd >150 nM)
# Method: Briefly, cells were seeded at 50,000 cells/well in conical-bottom 96-well plates and treated with test antibody for 24 hours at 4° C. to prevent internalization. Palivizumab (anti-RSV antibody, v22277) was included as a negative control. […] Following incubation, cells were washed and stained with anti-Human IgG Fc AF647 conjugate (Jackson Immuno Research Labs, West Grove, PA; Cat. No. 109-605-098) at 4° C. for 30 min. Following incubation and washing, fluorescence was detected by flow cytometry on a BD LSRFortessa™ Cell Analyzer (BD Biosciences, Franklin Lake, NJ) with 1,000 minimum events collected per well. The AF647/APC-A GeoMean (fluorescence signal geometric mean, proportional to anti-Human AF647 binding) was calculated for the live cell population using FlowJo™ Version 10.8.1 (BD Biosciences, Franklin Lake, NJ) and plotted for each test antibody using GraphPad Prism Version 9 (GraphPad Software, San Diego, CA).
# The ability of the humanized antibody variants v38591 and v29456 to bind to NaPi2b expressed on cells was assessed on endogenous NaPi2b-expressing tumor cell lines IGROV-1 (ovarian adenocarcinoma) and TOV-21G (ovarian carcinoma) by flow cytometry. IGROV-1 and TOV-21G cells express endogenous NaPi2b at high and moderate levels, respectively, as described in Example 10.
# Cellular binding was performed according to methods described in Example 13.
# [2] = Thermal stability by differential scanning calorimetry (DSC); assay type: physicochemical; settings: 0.4 mg/mL in PBS, scan 20° C. to 100° C. at 60° C./hr
# Method: The thermal stability of the humanized antibody variants was assessed by differential scanning calorimetry (DSC) as described below.
# 400 μL of purified samples primarily at concentrations of 0.4 mg/mL in PBS were used for DSC analysis with a VP-Capillary DSC (Malvern Panalytical Inc., Westborough, MA). At the start of each DSC run, 5 buffer blank injections were performed to stabilize the baseline, and a buffer injection was placed before each sample injection for referencing. Each sample was scanned from 20° C. to 100° C. at a 60° C./hr rate, with low feedback, 8 sec filter, 3 min pre-scan thermostat, and 70 psi nitrogen pressure. The resulting thermograms were referenced and analyzed using Origin 7 software (OriginLab Corporation, Northampton, MA) to determine melting temperature (Tm) as an indicator of thermal stability.
molecule,measurement,setting,value
B1,"NS-ELISA binding score (ratio of signal between antibody-treated and untreated), KLH",KLH,1.37
same,Bmax,[1],"11,271"
same,Curve Hill Slope (h),[1],1.1
same,Kd,[1],0.6 nM
same,Fab Tm,[2],77.9 °C
